# Measured values taken from article PMC9270373.
# Square brackets hold non-standard residues; d marks the D form. Ends that are not written are not given here. pT = C[C@@H](OP(=O)(O)O)[C@H](N)C(=O)O
# Columns and labels:
# [1] = target: potato 14-3-3 protein St14f (Solanum tuberosum L. (potato)); experiment: crystal structure; St14f free form, 2.5 Å; hanging drop, 12% (w/v) PEG 8000, 0.2 M ammonium tartrate pH 7, 277 K; three chains (A, B, C) in the asymmetric unit, dimers AA and BC
# [2] = target: St14f D217A (Solanum tuberosum L. (potato)); experiment: thermal shift assay; 10 µM St14f with no and with 100 µM StFDL1 peptide; SYPRO Orange; 10 mM HEPES pH 7.5, 0.15 M NaCl; heated from 25 to 99 °C; ΔTm = melting temperature difference with and without the peptide
# [3] = target: St14f I221A M222A (Solanum tuberosum L. (potato)); experiment: as above
# [4] = target: St14f L229A (Solanum tuberosum L. (potato)); experiment: as above
# [5] = target: St14f S214L (Solanum tuberosum L. (potato)); experiment: as above
# [6] = target: St14f S214M (Solanum tuberosum L. (potato)); experiment: as above
# [7] = target: St14f S214T (Solanum tuberosum L. (potato)); experiment: as above
# [8] = target: St14f S218G (Solanum tuberosum L. (potato)); experiment: as above
# [9] = target: St14f S218L (Solanum tuberosum L. (potato)); experiment: as above
# [10] = target: St14f S218M (Solanum tuberosum L. (potato)); experiment: as above
# [11] = target: St14f Y215A (Solanum tuberosum L. (potato)); experiment: as above
# [12] = target: potato 14-3-3 protein St14f (Solanum tuberosum L. (potato)); experiment: as above
Molecule,stoichiometry N [1],ΔTm [2] [°C],ΔTm [3] [°C],ΔTm [4] [°C],ΔTm [5] [°C],ΔTm [6] [°C],ΔTm [7] [°C],ΔTm [8] [°C],ΔTm [9] [°C],ΔTm [10] [°C],ΔTm [11] [°C],ΔTm [12] [°C]
potato 14-3-3 protein St14f (natural protein),2,,,,,,,,,,,
LNRTS[pT]APF [StFDL1 peptide (LNRTSpTAPF)],,6.67,4.63,6.22,4.26,3.6,4.01,6.37,7.61,7.48,4.42,4.03
